Measurements from publication doi:10.1101/2022.11.07.515412.
Values joined by “and” are separate entries in the source; they are usually repeats but may differ in a detail not shown here. Equal entries are not always repeated.

Legend:
[1] = biological target: vinculin D1D4 (residues 1-834) (human) (UniProt P18206); experiment: SEC-MALS
[2] = biological target: vinculin D1D2 (residues 1-484) (human) (UniProt P18206); experiment: SEC-MALS
[3] = biological target: vinculin D1D2 (residues 1-484) (human) (UniProt P18206); experiment: SEC-MALS; remark: listed apart in the source
[4] = biological target: vinculin D1 first subdomain (residues 1-257) (human) (UniProt P18206); experiment: native gel or EMSA
[5] = biological target: vinculin D1D2 (residues 1-484) (human) (UniProt P18206); experiment: native gel or EMSA
[6] = biological target: full-length human vinculin (HV) (human) (UniProt P18206); experiment: solid-phase binding assay
[7] = biological target: vinculin D1 first subdomain (residues 1-257) (human) (UniProt P18206); experiment: SEC-MALS

Row | stoichiometry N [3] | Substance | stoichiometry N [1] | stoichiometry N [2] | stoichiometry N [4] | stoichiometry N [5] | EC50 [6] [nM] | stoichiometry N (D1D2:AVBS1-3 molar ratio) [5] | stoichiometry N ([5]; scale: AVBS1-3 per D1D2) | stoichiometry N (molar ratio, printed as AVBS1-3:D1) [7]
1 | – | vinculin D1D4 (residues 1-834) (from UniProt P18206 1-834) (domain or fragment) | 2 and 3 | – | – | – | – | – | – | –
2 | 2 and 3 | vinculin D1D2 (residues 1-484) (from UniProt P18206 1-484) (domain or fragment) | – | 2 | – | – | – | – | – | –
3 | – | IpaA derivative containing VBS1-2 (AVBS1-2) (from UniProt P18010 1-633) (domain or fragment) | – | 1 D1D2:AVBS1-2 | 1 D1:AVBS1-2 | 1 D1D2:AVBS1-2 | 3.7 | – | – | –
4 | – | IpaA derivative containing VBS1-3 (AVBS1-3) (from UniProt P18010 1-633) (domain or fragment) | 1 D1D4:AVBS1-3 | – | 1 D1:AVBS1-3 | 1 D1D2:AVBS1-3 | 6.1 | 3 | 2 | 1 and 2 and 3
